Source: patent publication US20240400693A1 (Chugai, published 2024)
Positions count from the first letter of the chain named. Read-outs that look alike come from different tables or passages of the source.

B1: DQN0344H1013/L0620//DQN0385H1353/L0681-F6 (bispecific antibody)
heavy 1: QVQLVESGGGVVQPGRSLRLSCAASGFTFSSAYWMVWVRQAPGQGLEWMGAVYGGSDTTYYAKWTEGRFTISRDTSKNTLYLQMNSLRAEDTAVYYCAREPLNYYYYGELNVWGQGTLVTVSSASTKGPSVFPLAPSSKSTSGGTAALGCLVKDYFPEPVTVSWNSGALTSGVHTFPAVLKSSGLYSLSSVVTVPSSSLGTQTYICNVNHKPSNTKVDKRVEPKSCDKTHTCPPCPAPELRRGPSVFLFPPKPKDTLMISRTPEVTCVVVDVSHEDPEVKFNWYVDGVEVHNAKTKPREEQYNSTYRVVSVLTVLHQDWLNGKEYKCKVSNKALPAPIEKTISKAKGQPREPQVYTLPPSREEMTKNQVSLTCLVKGFYPSDIAVEWESNGQPENNYKTTPPYLDSDGSFFLYSKLTVDKSRWQEGNVFSCSVLHEALHAHYTREELSLSP
light 1: DIQMTQSPSSLSASVGDRVTITCQATENIYSGLAWYQQKPGKAPKLLIYYVSTLAYGIPARFSGSGSGTDFTLTISSLEPEDFAVYYCQTYEDVSAVTFGQGTKVEIKRTVAAPSVFIFPPSDEQLKSGTAEVVCLLNNFYPREAKVQWKVDNALQSGNSEESVTEQDSKDSTYSLSSTLTLSKADYEKHKVYACEVTHQGLSSPVTKSFNRGEC
heavy 2: QVQLVESGGGVVQPGRSLRLSCAASGFTFAEWYFMSWVRQAPGKGLEWVASIDTGSGSIDYAEWVEGRFTISRDNSKNTLYLQMNSLRAEDTAVYYCARDIGIDYNFWGPGTLVTVSSASTKGPSVFPLAPSSKSTSGGTAALGCLVEDYFPEPVTVSWNSGALTSGVHTFPAVLESSGLYSLSSVVTVPSSSLGTKTYICNVNHKPSNTKVDKRVEPKSCDKTHTCPPCPAPELRRGPSVFLFPPKPKDTLMISRTPEVTCVVVDVSHEDPEVKFNWYVDGVEVHNAKTKPREEQYNSTYRVVSVLTVLHQDWLNGKEYKCKVSNKALPAPIEKTISKAKGQPREPQVYTLPPSRKEMTKNQVSLTCLVKGFYPSDIAVEWESNGQPENNYKTTPPYLDSDGSFFLYSKLTVDKSRWQQGNVFSCSVLHEALHAHYTRKELSLSP
light 2: DIQMTQSPSSLSASVGDRVTITCQTTQSISSYLNWYQQKPGQPPKLLIYYASTKAEGIPARFSGSGLGTDFTLTISSLEPEDFAVYYCHYGISKVSFGQGTKVEIKRTVAAPSVFIFPPSDEQLKSGTAKVVCLLNNFYPREAKVQWKVDNALQSGNSKESVTEQDSKDSTYSLSSTLTLSKADYEKHKVYACEVTHQGLSSPVTKSFNRGEC
B2: DQN0344H0976/L0591//DQN0385H1255/L0605-F6.v2 (bispecific antibody)
heavy 1: B1 heavy 1 with R16G, V112L, Y403V
light 1: B1 light 1 with N28E, A55Y, Y56E
heavy 2: B1 heavy 2 with A30S, E63G, G67E, Y398V
light 2: B1 light 2 with L67S
B3: DQN0344H1013/L0620//DQN0385H1270/L0681-F6.v2 (bispecific antibody)
heavy 1: B1 heavy 1 with Y403V
light 1: B1 light 1
heavy 2: B1 heavy 2 with A30S, Y398V
light 2: B1 light 2
B4: DQN0344H1013/L0620//DQN0385H1521/L0605-F6.v2 (bispecific antibody)
heavy 1: B1 heavy 1 with Y403V
light 1: B1 light 1
heavy 2: B1 heavy 2 with A30E, E31S, Y398V
light 2: B1 light 2 with L67S

Tests used:
[1] = biological target: T1, HLA-DQ2.5 on IHW09023 cells loaded with gamma 1 gliadin peptide (human; wheat); assay: cell-based or functional assay
[2] = biological target: T2, HLA-DQ2.5 on IHW09023 cells loaded with BC hordein peptide (human; barley); assay: cell-based or functional assay
[3] = biological target: T3, HLA-DQ2.5 on IHW09023 cells loaded with gamma 2 gliadin peptide (human; wheat); assay: cell-based or functional assay
[4] = biological target: T4, HLA-DQ2.5 on IHW09023 cells loaded with omega1/2 gliadin peptide (human; wheat); assay: cell-based or functional assay
[5] = biological target: T5, HLA-DQ2.5 on IHW09023 cells loaded with gamma 3 gliadin peptide (human; wheat); assay: cell-based or functional assay
[6] = biological target: T6, HLA-DQ2.5 on IHW09023 cells loaded with gamma 4d gliadin peptide (human; wheat); assay: cell-based or functional assay
[7] = biological target: T7, HLA-DQ2.5 on IHW09023 cells loaded with 33mer gliadin peptide (human; wheat); assay: cell-based or functional assay
[8] = biological target: T8, HLA-DQ2.5 on IHW09023 cells loaded with gamma 4a gliadin peptide (human; wheat); assay: cell-based or functional assay
HLA-DQ5.1 on Ba/F3 cells = biological target: T9, HLA-DQ5.1 on Ba/F3 cells (human, limits assumed); assay: FACS, Ba/F3 cells; raw MFI
T9 construct: whole, on cells; also called Ba/F3-HLA-DQ5.1
T9 MHC II alpha: not shown
T9 MHC II beta: not shown

HLA-DQ6.3 on Ba/F3 cells = biological target: T10, HLA-DQ6.3 on Ba/F3 cells (human, UniProt P01920 33-230, limits assumed); assay: FACS, Ba/F3 cells; raw MFI
T10 construct: whole, on cells; also called Ba/F3-HLA-DQ6.3
T10 MHC II alpha: not shown
T10 MHC II beta: not shown

HLA-DP on Ba/F3 cells = biological target: T11, HLA-DP on Ba/F3 cells (human, UniProt P20036 29-222; P04440 30-225, limits assumed); assay: FACS, Ba/F3 cells; raw MFI
T11 construct: whole, on cells; also called Ba/F3-HLA-DP
T11 sequence (P20036 29-222 limits assumed, chain 1 of 4, other chains not shown): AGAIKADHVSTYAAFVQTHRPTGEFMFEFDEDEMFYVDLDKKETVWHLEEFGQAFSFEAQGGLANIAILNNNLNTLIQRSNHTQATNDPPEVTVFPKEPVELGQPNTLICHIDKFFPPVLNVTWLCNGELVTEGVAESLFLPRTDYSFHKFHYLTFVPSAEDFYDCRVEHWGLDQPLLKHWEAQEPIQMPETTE
T11 sequence (P04440 30-225 limits assumed, chain 2 of 4, other chains not shown): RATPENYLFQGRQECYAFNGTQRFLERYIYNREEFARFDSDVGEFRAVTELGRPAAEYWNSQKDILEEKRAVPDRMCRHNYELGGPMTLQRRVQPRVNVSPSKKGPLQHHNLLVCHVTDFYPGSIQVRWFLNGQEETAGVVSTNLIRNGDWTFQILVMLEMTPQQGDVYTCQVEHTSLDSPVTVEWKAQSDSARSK

[9] = biological target: HLA-DQ2.2 on HBBB2.2 cells loaded with 33mer gliadin peptide (human; wheat); assay: cell-based or functional assay
[10] = biological target: T1, HLA-DQ2.5 on IHW09023 cells loaded with …; assay: cell-based or functional assay; remark: listed apart in the source
[11] = biological target: T2, HLA-DQ2.5 on IHW09023 cells loaded with …; assay: cell-based or functional assay; remark: listed apart in the source
[12] = biological target: T3, HLA-DQ2.5 on IHW09023 cells loaded with …; assay: cell-based or functional assay; remark: listed apart in the source
[13] = biological target: T4, HLA-DQ2.5 on IHW09023 cells loaded with …; assay: cell-based or functional assay; remark: listed apart in the source
[14] = biological target: T5, HLA-DQ2.5 on IHW09023 cells loaded with …; assay: cell-based or functional assay; remark: listed apart in the source
[15] = biological target: T6, HLA-DQ2.5 on IHW09023 cells loaded with …; assay: cell-based or functional assay; remark: listed apart in the source
[16] = biological target: T7, HLA-DQ2.5 on IHW09023 cells loaded with …; assay: cell-based or functional assay; remark: listed apart in the source
[17] = biological target: T8, HLA-DQ2.5 on IHW09023 cells loaded with …; assay: cell-based or functional assay; remark: listed apart in the source

Binder	IC50 (ng/ml)_HLA-DQ2.2, α1a gliadin TCR, 25 µM 33mer gliadin [9] [ng/mL]	IC50 (ng/ml)_HLA-DQ2.2, α2 gliadin TCR, 1 µM 33mer gliadin [9] [ng/mL]	IC50 (ng/mL), γ1 gliadin TCR, 250 nM γ1 gliadin [10] [ng/mL]	IC50 (ng/mL), BC hordein TCR, 250 nM BC hordein [11] [ng/mL]	IC50 (ng/mL), γ2 gliadin TCR, 250 nM γ2 gliadin [12] [ng/mL]	IC50 (ng/mL), ω1 gliadin TCR, 25 µM ω1/2 gliadin [13] [ng/mL]	IC50 (ng/mL), ω2 gliadin TCR, 250 nM ω1/2 gliadin [13] [ng/mL]	IC50 (ng/mL), γ3 gliadin TCR, 100 µM γ3 gliadin [14] [ng/mL]	IC50 (ng/mL), γ4d gliadin TCR, 100 µM γ4d gliadin [15] [ng/mL]	IC50 (ng/mL), α1a gliadin TCR, 250 nM 33mer gliadin [16] [ng/mL]	IC50 (ng/mL), α1b gliadin TCR, 250 nM 33mer gliadin [16] [ng/mL]	IC50 (ng/mL), α2 gliadin TCR, 250 nM 33mer gliadin [16] [ng/mL]	IC50 (ng/mL), γ4a gliadin TCR, 25 µM γ4a gliadin [17] [ng/mL]	other results
B1														IC50 (ng/mL), γ1 gliadin TCR, 250 nM γ1 gliadin [1]: 0.56 ng/mL; IC50 (ng/mL), BC hordein TCR, 250 nM BC hordein [2]: 8.78 ng/mL; IC50 (ng/mL), γ2 gliadin TCR, 250 nM γ2 gliadin [3]: 100 ng/mL; IC50 (ng/mL), ω1 gliadin TCR, 25 µM ω1/2 gliadin [4]: 1.17 ng/mL; IC50 (ng/mL), ω2 gliadin TCR, 250 nM ω1/2 gliadin [4]: 0.17 ng/mL; IC50 (ng/mL), γ3 gliadin TCR, 100 µM γ3 gliadin [5]: 2.29 ng/mL; IC50 (ng/mL), γ4d gliadin TCR, 100 µM γ4d gliadin [6]: 2.06 ng/mL; IC50 (ng/mL), α1a gliadin TCR, 250 nM 33mer gliadin [7]: 0.29 ng/mL; IC50 (ng/mL), α1b gliadin TCR, 250 nM 33mer gliadin [7]: 1.13 ng/mL; IC50 (ng/mL), α2 gliadin TCR, 250 nM 33mer gliadin [7]: 0.34 ng/mL; IC50 (ng/mL), γ4a gliadin TCR, 25 µM γ4a gliadin [8]: 1250 ng/mL; binding result (HLA-DQ5.1 on Ba/F3 cells): no binding (tested: 0.05 micro g/mL); binding result (HLA-DQ6.3 on Ba/F3 cells): no binding (tested: 0.05 micro g/mL); binding result (HLA-DP on Ba/F3 cells): no binding (tested: 0.05 micro g/mL)
B2	1.72	9.48	1.62	9.52	252	1.62	0.18	1.55	8.69	0.46	1.33	0.29	636	
B3	1.62	4.6	5.85	25.2	280	3.19	0.49	4.84	27.8	0.63	1.42	0.53	1980	
B4	1.16	6.51	1.9	11.4	785	1.96	0.2	1.21	9.23	0.6	1.81	0.33	1250	
